B1: 515H7: murine anti-CXCR4 monoclonal antibody; light chain variable domain SEQ ID No. 7, heavy chain variable domain SEQ ID No. 8 (antibody, listed as Mus musculus, V domains shown)
VH: EVNLVESGGGLVQPGGSLRLSCATSGFTFTDNYMSWVRQPPGKALEWLGFIRNKANGYTTDYSASVRGRFTISRDNSQSILYLQMNALRAEDSATYYCARDVGSNYFDYWGQGTTLTVSS
VL: DIVMSQSPSSLAVSAGEKVTMSCKSSQSLFNSRTRKNYLAWYQQKPGQSPKLLIYWASARDSGVPARFTGSGSETYFTLTISRVQAEDLAVYYCMQSFNLRTFGGGTKLEIK
B2: c515H7: chimeric antibody 515H7: murine variable domains fused to human Ckappa and IgG1/IgG2/IgG4 constant domains; isotype tested not stated (antibody, V domains shown)
VH: B1 VH
VL: B1 VL

Key:
Format in all cases: cell-based
[1] = test system: R5 HIV-1 BaL virus; experiment: GHOST cells expressing CD4 and CCR5 infected with R5 HIV-1 BaL virus
Method: (§1) In order to determine the specificity of CXCR4 515H7 Mab, we evaluated the anti-HIV-1 activity of this Mab using GHOST cells expressing CD4 and CXCR4 or CCR5.
(§2) This assay is performed in 48 h using either the X4 HIV-1 LAI virus (with Ghost cells expressing CXCR4) or the R5 HIV-1 BaL virus (with Ghost cells expressing CCR5). 500 μl of Ghost cells were plated (2.5 10^5 cells/ml) for 24 h in Dulbecco culture medium supplemented with 10% FCS. Various dilutions of Mab 515H7 were incubated for 1 h at 37° C. and then diluted HIV-1 LAI virus ( 1/10) and HIV-1 BaL virus ( 1/7) were added to the cells for 48h. Cells were submitted to trypsin and washed with PBS 1×. 300 μL of 1.5% paraformaldehyde were added to the cell pellets for 2 h at +4° C. in the dark, in order to fix the cells and to inactivate viruses. GFP-positive cells were analyzed by flow cytometry and inhibition of HIV-1 infection was calculated.
(§3) The percent of inhibition of infected cells was defined as […] with control infected wells with no Mab.

[2] = test system: X4 HIV-1 LAI virus; experiment: GHOST cells expressing CD4 and CXCR4 infected with X4 HIV-1 LAI virus
Method: as §1, §2, §3

[3] = test system: HIV-1 primary isolate UG93067 (dual X4/R5 virus); experiment: Neutralization assay, multiple rounds of replication on primary PBMC, isolate UG93067
Method: This assay that combines serial dilutions of c515H7 Mab or Maraviroc or combination of both with serial dilutions of virus, analyzes multiple rounds of infection on PBMC (peripheral blood mononuclear cells). Briefly, quadruplicate 25-μl aliquots of serial dilutions (twofold) of c515H7 Mabs or Maraviroc or combination of both were each incubated with 25 μl of serial dilutions of virus in prehydrated 96-well filter plates (1.25-μm pore size, Durapor Dv; Millipore, Molsheim, France). […] On day 7, the presence of p24 in the culture supernatants was measured by ELISA and compared to that of the negative controls (cultures infected with dilutions of virus and maintained in the presence of 10^−6 M zidovudine [AZT]) to determine positive wells. […]
(§4) This assay that combines serial dilutions of hz515H7 Mab or Maraviroc or combination of both with serial dilutions of virus, analyzes multiple rounds of infection on PBMC (peripheral blood mononuclear cells). […] On day 7, the presence of p24 in the culture supernatants was measured by ELISA and compared to that of the negative controls (cultures infected with dilutions of virus and maintained in the presence of 10^−6 M zidovudine [AZT]) to determine positive wells. […]

[4] = test system: HIV-1 primary isolate 89.6 (dual X4/R5 virus); experiment: Neutralization assay, multiple rounds of replication on primary PBMC, isolate 89.6; settings: 90% decrease of viral titer
Method: This assay that combines serial dilutions of c515H7 Mab or Maraviroc or combination of both with serial dilutions of virus, analyzes multiple rounds of infection on PBMC (peripheral blood mononuclear cells). Briefly, quadruplicate 25-μl aliquots of serial dilutions (twofold) of c515H7 Mabs or Maraviroc or combination of both were each incubated with 25 μl of serial dilutions of virus in prehydrated 96-well filter plates (1.25-μm pore size, Durapor Dv; Millipore, Molsheim, France). A control titration of the virus (25 μl of RPMI replacing the diluted c515H7 Mabs or Maraviroc) was performed on the same plate as the titrations in the presence of dilutions of the c515H7 Mabs or Maraviroc or combination of both. After 1 h at 37° C., 25 μl of PHA-stimulated PBMC at a concentration of 4×10^6 cells/ml (pool of PHA activated PBMC from five healthy donors) was added to achieve a 75-μl final culture volume of RPMI, 10% fetal calf serum (FCS), and 20 IU of interleukin-2 (IL-2) per ml (R&D System). After 24 h at 37° C., 100 μl of the same culture medium was added. Two washings (200 μl of RPMI each) were performed by filtration on day 4 to remove the c515H7 Mabs and Maraviroc, and 200 μl of fresh culture medium was added. On day 7, the presence of p24 in the culture supernatants was measured by ELISA and compared to that of the negative controls (cultures infected with dilutions of virus and maintained in the presence of 10^−6 M zidovudine [AZT]) to determine positive wells. […]
as §4

Molecule | inhibition of HIV-1 R5 BaL virus infection in CCR5 expressing Ghost cells (in words) [1] | inhibition of HIV-1 X4 Lai virus infection in CXCR4 expressing Ghost cells (in words) [2] | GHOST CXCR4/LAI virus % inhibition of infected cells 80 ([2]; IC for 80% inhibition) [µg/mL] | reduction of virus titer by combination of c515H7 and Maraviroc ([3]; 10 μg/ml of each, only the combination reached it) [%] | inhibitory activity of the Mab compared with Maraviroc ([3]; virus UG93067, PBMC) | IC90 of c515H7 with addition of Maraviroc ([4]; Maraviroc at 2 μg/ml added) [µg/mL] | IC90 ([4]; single agent, multiple rounds, day 7 p24 ELISA) [µg/mL]
B1 | totally inactive | able to inhibit | 0.1 | – | – | – | –
B2 | – | – | – | 90 | similar | 0.2 | 2
